Data as given in US20210253724A1 (Hoffmann-La Roche, published 2021).

T1: human CEACAM5 (CEA) on cells (human, UniProt P06731 35-685)
T1 construct: Endogenous on MKN45 cells; full-length cDNA transfected into CHO-K1 cells; also called CEA expressed on MKN45 cells; CHO-k1-huCEACAM5 clone 11, clone 12, clone 13
T1 sequence: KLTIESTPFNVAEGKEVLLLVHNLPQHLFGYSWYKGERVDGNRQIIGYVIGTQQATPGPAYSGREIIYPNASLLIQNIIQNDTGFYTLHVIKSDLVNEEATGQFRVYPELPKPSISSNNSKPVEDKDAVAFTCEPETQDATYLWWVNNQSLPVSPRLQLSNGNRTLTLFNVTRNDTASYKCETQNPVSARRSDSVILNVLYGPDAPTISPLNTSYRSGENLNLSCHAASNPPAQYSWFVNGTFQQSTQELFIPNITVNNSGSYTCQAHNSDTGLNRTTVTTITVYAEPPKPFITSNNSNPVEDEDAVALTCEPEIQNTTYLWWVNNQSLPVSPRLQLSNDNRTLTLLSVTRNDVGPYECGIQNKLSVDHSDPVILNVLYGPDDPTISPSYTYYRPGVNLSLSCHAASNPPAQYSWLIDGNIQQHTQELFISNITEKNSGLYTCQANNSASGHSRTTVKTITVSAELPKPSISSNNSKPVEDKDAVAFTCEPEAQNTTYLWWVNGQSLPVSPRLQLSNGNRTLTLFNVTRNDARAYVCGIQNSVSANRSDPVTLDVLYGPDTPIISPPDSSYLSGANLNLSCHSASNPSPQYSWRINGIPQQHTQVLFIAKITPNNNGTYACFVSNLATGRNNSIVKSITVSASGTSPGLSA

B1: 2+1 H2H 4-1BB (20H4.9)/CEA (A5B7) P329GLALA IgG1 (bispecific antibody)
heavy 1: QVQLQQWGAGLLKPSETLSLTCAVYGGSFSGYYWSWIRQSPEKGLEWIGEINHGGYVTYNPSLESRVTISVDTSKNQFSLKLSSVTAADTAVYYCARDYGPGNYDWYFDLWGRGTLVTVSSASTKGPSVFPLAPSSKSTSGGTAALGCLVEDYFPEPVTVSWNSGALTSGVHTFPAVLQSSGLYSLSSVVTVPSSSLGTQTYICNVNHKPSNTKVDEKVEPKSCDKTHTCPPCPAPEAAGGPSVFLFPPKPKDTLMISRTPEVTCVVVDVSHEDPEVKFNWYVDGVEVHNAKTKPREEQYNSTYRVVSVLTVLHQDWLNGKEYKCKVSNKALGAPIEKTISKAKGQPREPQVCTLPPSRDELTKNQVSLSCAVKGFYPSDIAVEWESNGQPENNYKTTPPVLDSDGSFFLVSKLTVDKSRWQQGNVFSCSVMHEALHNHYTQKSLSLSP
heavy 2: not shown
light 1: not shown
light 2: EVKLVESGGGLVQPGGSLRLSCATSGFTFTDYYMNWVRQPPGKALEWLGFIGNKANGYTTEYSASVKGRFTISRDKSQSILYLQMNTLRAEDSATYYCTRDRGLRFYFDYWGQGTTLTVSSASVAAPSVFIFPPSDEQLKSGTASVVCLLNNFYPREAKVQWKVDNALQSGNSQESVTEQDSKDSTYSLSSTLTLSKADYEKHKVYACEVTHQGLSSPVTKSFNRGEC
notes: also called 2+1 H2H anti-4-1BB (20H4.9)×anti-CEA (A5B7) huIgG1 P329GLALA
B2: anti-4-1BB (20H4.9) huIgG1 P329GLALA (antibody, V domains shown)
VH: QVQLQQWGAGLLKPSETLSLTCAVYGGSFSGYYWSWIRQSPEKGLEWIGEINHGGYVTYNPSLESRVTISVDTSKNQFSLKLSSVTAADTAVYYCARDYGPGNYDWYFDLWGRGTLVTVSS
VL: EIVLTQSPATLSLSPGERATLSCRASQSVSSYLAWYQQKPGQAPRLLIYDASNRATGIPARFSGSGSGTDFTLTISSLEPEDFAVYYCQQRSNWPPALTFGGGTKVEIK
notes: Standard huIgG1 P329G LALA antibody with two anti-4-1BB Fabs

What was measured:
[1] = target: T2, human 4-1BB (CD137) on Jurkat-hu4-1BB-NFκB-luc2 reporter cells (human, UniProt Q07011 24-255); experiment: cell-based or functional assay
[2] = target: T2, human 4-1BB (CD137) on …; experiment: cell-based or functional assay; design: AUC of NFκB-luciferase activation curve, no CEA+ cells / AUC of NFκB-luciferase activation curve, with CHO-k1-cynoCEACAM5 clone 8: unit not given beside the values
[3] = target: T3, cynomolgus monkey CEACAM5 on CHO-k1-cynoCEACAM5 clone 8 cells (cynomolgus monkey); experiment: flow cytometry on CHO-k1-cynoCEACAM5 clone 8
T3 construct: whole, on cells
Protocol: (§1) Cells were incubated for 30 min at 4° C. and then washed twice with 80 μL/well DPBS. […] Cells were washed twice with 80 μL/well DPBS and then fixed in 30 μL/well DPBS containing 1% Formaldehyde for at least 15 minutes. The same or the next day cells were resuspended in 50 μL/well FACS-buffer and acquired using MACSQuant Analyzer X (Miltenyi Biotec).

[4] = target: T3, cynomolgus monkey CEACAM5 on …; experiment: flow cytometry on CHO-k1-cynoCEACAM5 clone 8; design: unit not given beside the values
[5] = target: T1, human CEACAM5 (CEA) on cells; experiment: flow cytometry on CHO-k1-humanCEACAM5 clone 11
Protocol: as §1

[6] = target: T1, human CEACAM5 (CEA) on cells; experiment: flow cytometry on CHO-k1-humanCEACAM5 clone 12
Protocol: as §1

[7] = target: T1, human CEACAM5 (CEA) on cells; experiment: flow cytometry on CHO-k1-humanCEACAM5 clone 13
Protocol: as §1

[8] = target: T2, human 4-1BB (CD137) on …; experiment: flow cytometry on Jurkat-hu4-1BB-NFκB-luc2 cells
Protocol: Plates were incubated for 30 minutes at 4° C. and washed once with 200 μL 4° C. cold DPBS buffer. […] Cells were washed twice with 200 μL 4° C. DPBS buffer and then resuspended in 50 μL/well DPBS containing 1% Formaldehyde for fixation. The same or the next day cells were resuspended in 100 μL FACS-buffer and acquired using MACSQuant Analyzer X (Miltenyi Biotec).

[9] = target: T4, human PD-L1 on MKN45-huPD-L1 cells (human, UniProt Q9NZQ7 19-290); experiment: flow cytometry on MKN45-huPD-L1 cells, goat F(ab')2 anti-human Fcγ-PE, gMFI baseline corrected
T4 construct: Full-length cDNA transfected into MKN45 cells; also called humanPD-L1-expressing MKN45 cells
T4 sequence (Q9NZQ7 19-290 limits assumed): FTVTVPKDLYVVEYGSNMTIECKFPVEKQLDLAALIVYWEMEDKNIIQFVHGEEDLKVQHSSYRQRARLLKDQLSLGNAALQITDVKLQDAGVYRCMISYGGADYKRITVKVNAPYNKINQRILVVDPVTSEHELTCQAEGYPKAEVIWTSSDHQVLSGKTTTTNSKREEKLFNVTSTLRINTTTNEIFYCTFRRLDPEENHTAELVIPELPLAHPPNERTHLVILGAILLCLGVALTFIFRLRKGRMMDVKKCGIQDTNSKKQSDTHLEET
Protocol: as §1

[10] = target: T1, human CEACAM5 (CEA) on cells; experiment: flow cytometry on CHO-K1-humanCEACAM5 clone 12 cells, goat F(ab')2 anti-human Fcγ-PE, median fluorescence intensity baseline corrected
Protocol: as §1

EC50 of NFκB-luciferase activation curve, no CEA+ cells [1] [nM] | EC50 of NFκB-luciferase activation curve, with CHO-k1-cynoCEACAM5 clone 8 [1] [nM] | EC50 of NFκB-luciferase activation curve, with CHO-k1-humanCEACAM5 clone 11 [1] [nM] | EC50 of NFκB-luciferase activation curve, with CHO-k1-humanCEACAM5 clone 12 [1] [nM] | AUC of NFκB-luciferase activation curve, no CEA+ cells [2] | AUC of NFκB-luciferase activation curve, with CHO-k1-cynoCEACAM5 clone 8 [2] | AUC of NFκB-luciferase activation curve, with CHO-k1-humanCEACAM5 clone 11 [2] | AUC of NFκB-luciferase activation curve, with CHO-k1-humanCEACAM5 clone 12 [2] | EC50 [3] [nM] | AUC [4] | EC50 [5] [nM] | EC50 [6] [nM] | EC50 [7] [nM] | EC50 [8] [nM] | binding result [9] | binding result [10] | Binder
0.04 | 0.07 | 0.04 | 0.03 | 1320 | 43100 | 65700 | 58900 | 48.8 | 4850 | 11.4 | 13.9 | 12.9 |  |  |  | B1
0.19 | 0.17 | 0.18 | 0.19 | 5070 | 4920 | 15400 | 11900 |  | 136 |  |  |  | 0.073 | no binding (tested: 100 nM) | no binding (tested: about 300 nM) | B2
